This assay addresses urea pre-unfolded MLucV (stable small aggregates) (firefly). The assay is described as follows: SEC-RALS.

As for “urea pre-unfolded MLucV (stable small aggregates)”, the stoichiometry N (as a rule, the number of molecules, sites or subunits per partner or assembly) stood at 12.

These data come from paper doi:10.1101/2022.02.17.480908.
